Here are results for 4 molecules from paper PMC7271519, “The DISC1 R264Q variant increases affinity for the dopamine D2 receptor and increases GSK3 activity” (Molecular Brain, 2020).

The target in experiment [1] is T1, TAT-D2pep[K211-T225] peptide (UniProt P14416 211-225).
T1 construct: dopamine D2 receptor, residues K211-T225; also called D2 [K211-T225]
The experiment in a line: SPR; TAT-D2pep amine-coupled to carboxymethylated dextran chip (600 RU); human GST-DISC1NT or R264Q flowed at 0-4.0 uM; 25 °C; TBS-T (150 mM NaCl, 1 mM CaCl2, 1 mM MgCl2, 10 mM Tris pH 7.4, 0.005% P-20); 50 ul/min; equilibrium analysis. Particulars: both partners purified.

Experiment [2] deals with T1, TAT-D2pep[K211-T225] peptide. The experiment in a line: SPR; TAT-D2pep amine-coupled to carboxymethylated dextran chip; mouse GST-Disc1-L100PNT at 25-400 nM, GST-DISC1NT at 100 nM-1.6 uM; 25 °C; TBS-T pH 7.4; 50 ul/min; association 180 s, dissociation 300 s; KD from association and dissociation rates. Particulars: both partners purified.

Numbering of substitutions follows the chain as printed. Numbers in names are those of the source.

B1: GST-DISC1NT (human, wild type) (domain or fragment)
chain: MPGGGPQGAPAAAGGGGVSHRAGSRDCLPPAACFRRRRLARRPGYMRSSTGPGIGFLSPAVGTLFRFPGGVSGEESHHSESRARQCGLDSRGLLVRSPVSKSAAAPTVTSVRGTSAHFGIQLRGGTRLPDRLSWPCGPGSAGWQQEFAAMDSSETLDASWEAACSDGARRVRAAGSLPSAELSSNSCSPGCGPEVPPTPPGSHSAFTSSFSFIRLSLGSAGERGEAEGCPPSREAESHCQSPQEMGAKAASLDGPHEDPRCLSRPFSLLATRVSADLAQAARNSSRPERDMH
modifications: GST carrier omitted; limits not given, N-terminal head region taken from the UniProt feature 1-292
B1: binding in experiment [1] was characterised by a dissociation constant (Kd) of 653 ± 6 nM.

B2: GST-DISC1-NT R264Q (human) (domain or fragment)
chain: B1 chain with R264Q
modifications: GST carrier omitted; limits not given, N-terminal head region taken from the UniProt feature 1-292
For B2, in experiment [1], the Kd – broadly, the concentration at which binding is half-saturated – was 243 ± 3 nM.

B3: GST-DISC1NT (mouse, wild type) (domain or fragment)
chain: MQGGGPRGAPIHSPSHGADSGHGLPPAVAPQRRRLTRRPGYMRSTAGSGIGFLSPAVGMPHPSSAGLTGQQSQHSQSKAGQCGLDPGSHCQASLVGKPFLKSSLVPAVASEGHLHPAQRSMRKRPVHFAVHSKNDSRQSERLTGSFKPGDSGFWQELLSSDSFKSLAPSLDAPWNKGSRGLKTVKPLASPALNGPADIASLPGFQDTFTSSFSFIQLSLGAAGERGEAEGCLPSREAEPLHQRPQEMAAEASSSDRPHGDPRHLWTFSLHAAPGLADLAQVTRSSSRQSECGTV
modifications: GST carrier omitted; limits not given, N-terminal head region taken from the UniProt feature 1-294
For B3, the Kd in experiment [2] came out at 760 ± 20 nM.

B4: GST-Disc1-L100PNT (mouse) (domain or fragment)
chain: B3 chain with L100P
modifications: GST carrier omitted; limits not given, N-terminal head region taken from the UniProt feature 1-294
In turn, B4 had a Kd in experiment [2] of 100 ± 2 nM.
